# Starred links: 1 amine or outer side, 2 acyl side, 3 side chain; linkers in the order of their positions; H or OH if unused. Positions of bridges follow the written chain, without caps; N, C: chain ends. Non-standard residues stand in square brackets, D forms with d. Primed or numbered codes have the meaning given here. B5(15) = 2-amino-2-(pent-4-en-1-yl)hept-6-enoic acid (2,2-bis(4-pentenyl)glycine), stitching residue bearing two staples, C=CCCCC(CCCC=C)(N[*:1])C(=O)[*:2]; B5(23) = 2-amino-2-(pent-4-en-1-yl)hept-6-enoic acid (2,2-bis(4-pentenyl)glycine), stitching residue, C=CCCCC(CCCC=C)(N[*:1])C(=O)[*:2]; B5(32) = 2-amino-2-(pent-4-en-1-yl)hept-6-enoic acid (bis-4-pentenylglycine, two alkene side chains), C=CCCCC(CCCC=C)(N[*:1])C(=O)[*:2]; B5(4) = 2,2-bis(4-pentenyl)glycine = 2-amino-2-(pent-4-en-1-yl)hept-6-enoic acid (stitching residue), C=CCCCC(CCCC=C)(N[*:1])C(=O)[*:2]; B5(5) = 2,2-bis(4-pentenyl)glycine, 2-amino-2-(pent-4-en-1-yl)hept-6-enoic acid (stitching residue), C=CCCCC(CCCC=C)(N[*:1])C(=O)[*:2]; PyrS2 = (S)-3-amino-1-((pent-4-en-1-yloxy)carbonyl)pyrrolidine-3-carboxylic acid, C=CCCCOC(=O)N1CC[C@@](N[*:1])(C(=O)[*:2])C1; 3Br4FF = (S)-2-amino-3-(3-bromo-4-fluorophenyl)propanoic acid, O=C([C@H](Cc1ccc(F)c(Br)c1)N[*:1])[*:2]; B5(3) = 2,2-bis(4-pentenyl)glycine (stitching residue), C=CCCCC(CCCC=C)(N[*:1])C(=O)[*:2]; Phe(3-COOH) = N[C@@H](Cc1cccc(C(=O)O)c1)C(=O)O; Phe(2-CF3) = N[C@@H](Cc1ccccc1C(F)(F)F)C(=O)O; Bta = N[C@@H](Cc1csc2ccccc12)C(=O)O; αAllylPro = C=CC[C@@]1(C(=O)O)CCCN1; tBuAla = CC(C)(C)C[C@H](N)C(=O)O; 3Thi = N[C@@H](Cc1ccsc1)C(=O)O; S8 = C=CCCCCCC[C@](C)(N)C(=O)O; hLeu = CC(C)CC[C@H](N)C(=O)O; PyrS2(4) = not defined here; hSer = N[C@@H](CCO)C(=O)O; Nle = CCCC[C@H](N)C(=O)O; Aib = CC(C)(N)C(=O)O
# T1: B-cat-Halo (UniProt P35222 1-781)
# T1 sequence (looked up): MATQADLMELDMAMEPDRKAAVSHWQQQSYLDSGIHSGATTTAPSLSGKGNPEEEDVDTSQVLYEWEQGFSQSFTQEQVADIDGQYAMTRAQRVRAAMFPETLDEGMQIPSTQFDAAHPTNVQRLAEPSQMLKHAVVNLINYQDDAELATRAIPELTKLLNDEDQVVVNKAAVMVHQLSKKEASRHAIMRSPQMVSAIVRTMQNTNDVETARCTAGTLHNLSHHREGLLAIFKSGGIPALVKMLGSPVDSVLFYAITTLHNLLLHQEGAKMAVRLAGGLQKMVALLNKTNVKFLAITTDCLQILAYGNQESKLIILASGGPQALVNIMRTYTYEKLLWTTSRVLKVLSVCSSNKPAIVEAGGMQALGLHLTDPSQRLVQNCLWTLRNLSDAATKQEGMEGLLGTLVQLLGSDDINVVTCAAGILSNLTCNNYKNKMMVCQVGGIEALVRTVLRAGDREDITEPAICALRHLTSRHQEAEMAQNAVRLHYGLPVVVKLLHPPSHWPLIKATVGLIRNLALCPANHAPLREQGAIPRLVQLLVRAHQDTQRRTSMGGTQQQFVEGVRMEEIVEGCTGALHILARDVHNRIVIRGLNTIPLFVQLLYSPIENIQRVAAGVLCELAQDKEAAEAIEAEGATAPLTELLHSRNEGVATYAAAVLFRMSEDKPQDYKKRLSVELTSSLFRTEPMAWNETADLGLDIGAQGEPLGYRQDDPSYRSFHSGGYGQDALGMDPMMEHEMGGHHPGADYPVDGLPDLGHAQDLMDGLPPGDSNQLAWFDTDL
# T2: B-cat-Halo (beta-catenin HaloTag NanoBRET construct expressed in HEK293 cells) (UniProt P35222 1-781, HaloTag NanoBRET 618 Ligand bound to the HaloTag)
# T2 sequence (looked up): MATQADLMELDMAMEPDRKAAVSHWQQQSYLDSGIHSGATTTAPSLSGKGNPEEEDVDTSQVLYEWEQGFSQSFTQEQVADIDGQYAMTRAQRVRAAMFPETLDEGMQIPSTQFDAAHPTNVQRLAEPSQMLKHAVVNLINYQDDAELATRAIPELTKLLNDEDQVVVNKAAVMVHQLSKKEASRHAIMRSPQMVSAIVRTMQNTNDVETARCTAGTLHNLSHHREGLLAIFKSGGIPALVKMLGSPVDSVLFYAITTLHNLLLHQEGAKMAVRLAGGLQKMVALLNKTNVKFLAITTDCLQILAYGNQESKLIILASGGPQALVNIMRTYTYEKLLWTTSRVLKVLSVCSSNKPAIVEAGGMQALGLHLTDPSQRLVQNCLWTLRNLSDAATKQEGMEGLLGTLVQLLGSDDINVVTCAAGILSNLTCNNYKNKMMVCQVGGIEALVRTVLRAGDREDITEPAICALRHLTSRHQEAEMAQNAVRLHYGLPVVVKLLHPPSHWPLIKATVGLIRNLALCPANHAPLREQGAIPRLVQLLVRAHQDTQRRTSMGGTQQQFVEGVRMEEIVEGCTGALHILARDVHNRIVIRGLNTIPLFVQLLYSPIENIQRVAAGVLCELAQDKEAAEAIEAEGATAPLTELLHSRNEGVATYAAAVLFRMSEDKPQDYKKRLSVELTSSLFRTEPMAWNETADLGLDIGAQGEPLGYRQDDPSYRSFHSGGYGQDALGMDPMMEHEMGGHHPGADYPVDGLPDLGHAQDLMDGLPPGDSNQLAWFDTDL
# T3: B-cat-Halo (beta-catenin HaloTag NanoBRET construct expressed in HEK293 cells) (UniProt P35222 1-781)
# T3 sequence (looked up): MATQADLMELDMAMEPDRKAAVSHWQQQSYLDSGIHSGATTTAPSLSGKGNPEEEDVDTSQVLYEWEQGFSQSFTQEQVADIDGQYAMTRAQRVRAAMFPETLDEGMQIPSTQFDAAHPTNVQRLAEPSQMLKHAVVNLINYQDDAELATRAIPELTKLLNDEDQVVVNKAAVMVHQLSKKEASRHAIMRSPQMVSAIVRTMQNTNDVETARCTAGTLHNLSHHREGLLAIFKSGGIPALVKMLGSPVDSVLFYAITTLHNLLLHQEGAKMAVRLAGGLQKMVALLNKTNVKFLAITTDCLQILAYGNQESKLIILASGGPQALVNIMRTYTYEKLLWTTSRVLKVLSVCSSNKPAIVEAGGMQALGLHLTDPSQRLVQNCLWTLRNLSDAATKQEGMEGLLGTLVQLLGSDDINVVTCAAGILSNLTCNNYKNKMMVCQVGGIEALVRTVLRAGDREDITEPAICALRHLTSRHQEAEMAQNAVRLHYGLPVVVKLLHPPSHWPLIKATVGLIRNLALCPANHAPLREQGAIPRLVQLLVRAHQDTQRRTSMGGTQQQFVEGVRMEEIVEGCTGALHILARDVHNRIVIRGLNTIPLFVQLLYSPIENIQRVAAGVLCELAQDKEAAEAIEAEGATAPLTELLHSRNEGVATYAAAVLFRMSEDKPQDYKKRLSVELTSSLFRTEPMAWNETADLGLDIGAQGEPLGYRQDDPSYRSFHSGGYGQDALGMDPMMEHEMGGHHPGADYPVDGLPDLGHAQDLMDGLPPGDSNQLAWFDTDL
# B1: I-2271 (peptide)
# peptide: Ac-[αAllylPro]D[tBuAla][B5(3)]D[Phe(3-COOH)]AAFL[PyrS2(4)][3Thi][Bta]NA[Aib]A-NH2
# modifications: staple 1-4, 4-11; reading uncertain; also: printed as Ac-PL3-Asp-Npg-B5-Asp-3COOHF-Ala-Ala-Phe-Leu-PyrS2-3Thi-BztA-Asn-Ala-Aib-Ala-NH2
# B2: I-1542 (peptide)
# peptide: Ac-[αAllylPro]DQ[B5(15)]DEAAF[hSer][S8]F[Bta]Q-NH2
# modifications: staple 1-4, 4-11; not fully specified; printed as Ac-PL3-Asp-Gln-B5-Asp-Glu-Ala-Ala-Phe-Hse-S8-Phe-BztA-Gln-NH2
# B3: I-1538 (peptide)
# peptide: Ac-[αAllylPro]D[hLeu][B5(15)]DEAAF[hSer][S8]F[Bta]Q-NH2
# modifications: staple 1-4, 4-11; not fully specified; printed as Ac-PL3-Asp-Hleu-B5-Asp-Glu-Ala-Ala-Phe-Hse-S8-Phe-BztA-Gln-NH2
# B4: I-1543 (peptide)
# peptide: Ac-[αAllylPro]DQ[B5(15)]DEAAF[hSer][S8]F[Bta]Q-NH2
# modifications: staple 1-4, 4-11; not fully specified; printed as Ac-PL3-Asp-Gln-B5-Asp-Glu-Ala-Ala-Phe-Hse-S8-Phe-BztA-Gln-NH2
# B5: I-1537 (peptide)
# peptide: Ac-[αAllylPro]D[hLeu][B5(15)]DEAAF[hSer][S8]F[Bta]Q-NH2
# modifications: staple 1-4, 4-11; not fully specified; printed as Ac-PL3-Asp-Hleu-B5-Asp-Glu-Ala-Ala-Phe-Hse-S8-Phe-BztA-Gln-NH2
# Target: T1, B-cat-Halo
# Assay: cell-based or functional assay
row,Binder,NanoBRET Abs IC50 [µM]
1,"Ac-[αAllylPro]D[tBuAla][B5(4)]D[Phe(3-COOH)]AAFL[PyrS2][3Thi][Bta]NALALA-NH2 (staple 1-4, 4-11; also: later eluting staple isomer) [I-2282]",3.7
2,"Ac-[αAllylPro]D[tBuAla][B5(4)]D[Phe(3-COOH)]AAFL[PyrS2][3Thi][3Br4FF]Q-NH2 (staple 1-4, 4-11) [I-2287]",7.1
3,B1,2.3
4,"Ac-[αAllylPro]D[tBuAla][B5(4)]D[Phe(3-COOH)]QAFV[PyrS2][3Thi][3Br4FF]A-NH2 (staple 1-4, 4-11) [I-2288]",6.7
5,"Ac-[αAllylPro]D[tBuAla][B5(32)]D[Phe(3-COOH)]AAFL[PyrS2][3Thi][Bta]NLLL-NH2 (staple 1-4, 4-11; also: earlier eluting staple isomer (HPLC peak)) [I-2275]",3.5
6,"Ac-[αAllylPro]D[tBuAla][B5(4)]D[Phe(3-COOH)]AAFL[PyrS2][Phe(2-CF3)][3Br4FF]S-NH2 (staple 1-4, 4-11) [I-2289]",9

# Target: T2, B-cat-Halo (beta-catenin HaloTag …)
# Assay: cell-based or functional assay
row,Binder,NanoBRET Abs IC50 [µM]
1,"Ac-[αAllylPro]D[Nle][B5(5)]DEAAF[hSer][S8]F[Bta]Q-NH2 (staple 1-4, 4-11) [I-1525: Ac-PL3-Asp-nLeu-B5-Asp-Glu-Ala-Ala-Phe-Hse-S8-Phe-BztA-Gln-NH2]",10.8

# Target: T3, B-cat-Halo (beta-catenin HaloTag …)
# Assay: cell-based or functional assay
row,Binder,NanoBRET Abs IC50 [µM]
1,B2,49.1
2,"Ac-[αAllylPro]DF[B5(15)]DEAAFQ[S8]F[Bta]Q-NH2 (staple 1-4, 4-11) [I-1549]",11.6
3,"Ac-[αAllylPro]D[hSer][B5(15)]DEAAF[hSer][S8]F[Bta]Q-NH2 (staple 1-4, 4-11; not fully specified) [I-1548]",> 20
4,B3,11.8
5,"Ac-[αAllylPro]D[hLeu][B5(15)]DEAAFL[S8]F[Bta]Q-NH2 (staple 1-4, 4-11) [I-1536]",18.4
6,B4,> 20
7,"Ac-[αAllylPro]D[tBuAla][B5(23)]NNAAFN[PyrS2][3Thi][Bta]Q-NH2 (staple 1-4, 4-11) [I-1555]",29.3
8,B5,13.9

# Source: US20240116985A1 (published 2024)
